Test results as given in patent US20260098095A1 (Hoffmann-La Roche, published 2026).

Legend:
Assay in all cases: cell-based or functional assay
[1] = target: T1, HLA-A2/MAGE-A4 peptide MHC (pMHC) complex on cells (human)
[2] = target: T1, HLA-A2/MAGE-A4 peptide MHC (pMHC) …; remark: listed apart in the source
[3] = target: T1, HLA-A2/MAGE-A4 peptide MHC (pMHC) …; remark: listed apart in the source
pfkA = pfkA (human)
DPYSL3 = DPYSL3 (human)
gutQ = gutQ (human)
UBE2V2 = UBE2V2 (human)
DPYSL4 = DPYSL4 (human)
PIGG = PIGG (human)
CRMP1 = CRMP1 (human)
BNRF1 = BNRF1 (human)
EDC3 = EDC3 (human)
FBXO34 = FBXO34 (human)
SLC45A1 = SLC45A1 (human)
KEAP1 = KEAP1 (human)
UNC80 = UNC80 (human)
VPS13D = VPS13D (human)
MAGEB2 = MAGEB2 (human)
ARF1 = ARF1 (human)
ARF3 = ARF3 (human)
URB1 = URB1 (human)
GAPDHS = GAPDHS (human)
CCS = CCS (human)
KDM1A = KDM1A (human)
DYNC1H1 = DYNC1H1 (human)
MTOR = MTOR (human)
PKP1 = PKP1 (human)
[4] = target: HLA-A2 with peptide MAGB6 on T2 cells (human)
[5] = target: HLA-A2 with peptide MAGA10 on T2 cells (human)
T9A = T9A (human)
V10A = V10A (human)
G1A = G1A (human)
V2A = V2A (human)
Y3A = Y3A (human)
D4A = D4A (human)
G5A = G5A (human)
R6A = R6A (human)
E7A = E7A (human)
H8A = H8A (human)
[6] = target: T1, HLA-A2/MAGE-A4 peptide MHC (pMHC) …; remark: listed apart in the source

B1: Molecule E (bispecific antibody, V domains shown)
VH 1: not shown
VL 1: SSELTQDPAVSVALGQTVRITCQGDSLRSYYASWYQQKPGQAPVLVIYGKNNRPSGIPDRFSGSSSGNTASLTITGAQAEDEADYYCNSRQSSYYHHIVFGGGTKLTVL
VH 2: not shown
VL 2: QAVVTQEPSLTVSPGGTVTLTCGSSTGAVTTSNYANWVQEKPGQAFRGLIGGTNKRAPGTPARFSGSLLGGKAALTLSGAQPEDEAEYYCALWYSNLWVFGGGTKLTVL
EC50 [pM] 24 h, T-cell mediated lysis of MAGE-A4 peptide pulsed T2 cells [1]: 32.7 pM
EC50 [pM], activation of Jurkat-NFAT reporter cells (luminescence, 6 h) with MAGE-A4 peptide pulsed T2 cells [2]: 877 pM
EC50 [pM], T-cell mediated lysis of C-33A cells, 24 h [3]: 3980 pM
EC50 [pM], T-cell mediated lysis of IM-9 cells, 24 h [3]: 393 pM
EC50 [pM], T-cell mediated lysis of NCI-H1755 cells, 24 h [3]: 84.4 pM
EC50 [pM], T-cell mediated lysis of UMUC-3 cells, 24 h [3]: ~5800 pM
% of MAGE-A4 signal, Jurkat-NFAT (pfkA): 0.26%
% of MAGE-A4 signal, Jurkat-NFAT (DPYSL3): 1.04%
% of MAGE-A4 signal, Jurkat-NFAT (gutQ): 0.31%
% of MAGE-A4 signal, Jurkat-NFAT (UBE2V2): 0.4%
% of MAGE-A4 signal, Jurkat-NFAT (DPYSL4): 0.48%
% of MAGE-A4 signal, Jurkat-NFAT (PIGG): 0.26%
% of MAGE-A4 signal, Jurkat-NFAT (CRMP1): 0.37%
% of MAGE-A4 signal, Jurkat-NFAT (BNRF1): 0.45%
% of MAGE-A4 signal, Jurkat-NFAT (EDC3): 0.54%
% of MAGE-A4 signal, Jurkat-NFAT; grey (>2%) (FBXO34): 4.03%
% of MAGE-A4 signal, Jurkat-NFAT (SLC45A1): 0.38%
% of MAGE-A4 signal, Jurkat-NFAT (KEAP1): 0.34%
% of MAGE-A4 signal, Jurkat-NFAT (UNC80): 0.49%
% of MAGE-A4 signal, Jurkat-NFAT; grey (>2%) (VPS13D): 47%
% of MAGE-A4 signal, Jurkat-NFAT; grey (>2%) (MAGEB2): 108%
% of MAGE-A4 signal, Jurkat-NFAT (ARF1): 0.93%
% of MAGE-A4 signal, Jurkat-NFAT (ARF3): 0.85%
% of MAGE-A4 signal, Jurkat-NFAT (URB1): 1.2%
% of MAGE-A4 signal, Jurkat-NFAT (GAPDHS): 0.39%
% of MAGE-A4 signal, Jurkat-NFAT; grey (>2%) (CCS): 38.6%
% of MAGE-A4 signal, Jurkat-NFAT (KDM1A): 0.34%
% of MAGE-A4 signal, Jurkat-NFAT (DYNC1H1): 0.17%
% of MAGE-A4 signal, Jurkat-NFAT (MTOR): 0.29%
% of MAGE-A4 signal, Jurkat-NFAT (PKP1): 0.43%
% of MAGE-A4 signal, Jurkat-NFAT; grey (>2%) [4]: 110%
% of MAGE-A4 signal, Jurkat-NFAT; grey (>2%) [5]: 43.2%
EC50, Jurkat-NFAT activation (T9A): 4.26 nM
EC50, Jurkat-NFAT activation (V10A): 7.46 nM
EC50, Jurkat-NFAT activation (G1A): 2.72 nM
EC50, Jurkat-NFAT activation (V2A): 4.07 nM
EC50, Jurkat-NFAT activation (Y3A): 2.06 nM
EC50, Jurkat-NFAT activation (D4A): 22.3 nM
EC50, Jurkat-NFAT activation (G5A): 9.44 nM
EC50, Jurkat-NFAT activation (R6A): 2.37 nM
EC50, Jurkat-NFAT activation (E7A): 2.98 nM
EC50, Jurkat-NFAT activation (H8A): 1.23 nM
EC50, Jurkat-NFAT activation [6]: 1.62 nM

B2: Molecule F (bispecific antibody, V domains shown)
VH 1: not shown
VL 1: SSELTQDPAVSVALGQTVRITCQGDSLRSYYASWYQQKPGQAPVLVIYGKNNRPSGIPDRFSGSSSSNTASLTITGAQAEDEADYYCNSRMSSRYHHDVFGGGTKLTVL
VH 2: not shown
VL 2: QAVVTQEPSLTVSPGGTVTLTCGSSTGAVTTSNYANWVQEKPGQAFRGLIGGTNKRAPGTPARFSGSLLGGKAALTLSGAQPEDEAEYYCALWYSNLWVFGGGTKLTVL
EC50 [pM] 24 h, T-cell mediated lysis of MAGE-A4 peptide pulsed T2 cells [1]: 1.5 pM
EC50 [pM], activation of Jurkat-NFAT reporter cells (luminescence, 6 h) with MAGE-A4 peptide pulsed T2 cells [2]: 41.6 pM
EC50 [pM], T-cell mediated lysis of A-375 cells, 24 h [3]: 822 pM
EC50 [pM], T-cell mediated lysis of C-33A cells, 24 h [3]: 186 pM
EC50 [pM], T-cell mediated lysis of IM-9 cells, 24 h [3]: 8.3 pM
EC50 [pM], T-cell mediated lysis of NCI-H1755 cells, 24 h [3]: 2.7 pM
EC50 [pM], T-cell mediated lysis of NCI-H2023 cells, 24 h [3]: 890 pM
EC50 [pM], T-cell mediated lysis of U266B1 cells, 24 h [3]: 352 pM
EC50 [pM], T-cell mediated lysis of UMUC-3 cells, 24 h [3]: 429 pM
% of MAGE-A4 signal, Jurkat-NFAT (pfkA): 0.8%
% of MAGE-A4 signal, Jurkat-NFAT; grey (>2%) (DPYSL3): 61.9%
% of MAGE-A4 signal, Jurkat-NFAT (gutQ): 0.73%
% of MAGE-A4 signal, Jurkat-NFAT (UBE2V2): 0.71%
% of MAGE-A4 signal, Jurkat-NFAT; grey (>2%) (DPYSL4): 14.2%
% of MAGE-A4 signal, Jurkat-NFAT (PIGG): 0.78%
% of MAGE-A4 signal, Jurkat-NFAT; grey (>2%) (CRMP1): 6.54%
% of MAGE-A4 signal, Jurkat-NFAT (BNRF1): 0.55%
% of MAGE-A4 signal, Jurkat-NFAT (EDC3): 0.89%
% of MAGE-A4 signal, Jurkat-NFAT (FBXO34): 0.78%
% of MAGE-A4 signal, Jurkat-NFAT (SLC45A1): 0.68%
% of MAGE-A4 signal, Jurkat-NFAT (KEAP1): 0.66%
% of MAGE-A4 signal, Jurkat-NFAT (UNC80): 1.05%
% of MAGE-A4 signal, Jurkat-NFAT; grey (>2%) (VPS13D): 172%
% of MAGE-A4 signal, Jurkat-NFAT; grey (>2%) (MAGEB2): 126%
% of MAGE-A4 signal, Jurkat-NFAT (ARF1): 1.58%
% of MAGE-A4 signal, Jurkat-NFAT (ARF3): 1.53%
% of MAGE-A4 signal, Jurkat-NFAT; grey (>2%) (URB1): 78.4%
% of MAGE-A4 signal, Jurkat-NFAT (GAPDHS): 1.01%
% of MAGE-A4 signal, Jurkat-NFAT; grey (>2%) (CCS): 76.8%
% of MAGE-A4 signal, Jurkat-NFAT (KDM1A): 0.9%
% of MAGE-A4 signal, Jurkat-NFAT (DYNC1H1): 0.64%
% of MAGE-A4 signal, Jurkat-NFAT (MTOR): 0.42%
% of MAGE-A4 signal, Jurkat-NFAT (PKP1): 0.64%
% of MAGE-A4 signal, Jurkat-NFAT; grey (>2%) [4]: 130%
% of MAGE-A4 signal, Jurkat-NFAT; grey (>2%) [5]: 145%
EC50, Jurkat-NFAT activation (T9A): 0.45 nM
EC50, Jurkat-NFAT activation (V10A): 0.791 nM
EC50, Jurkat-NFAT activation (G1A): 0.259 nM
EC50, Jurkat-NFAT activation (V2A): 6.57 nM
EC50, Jurkat-NFAT activation (Y3A): 15 nM
EC50, Jurkat-NFAT activation (D4A): 9.95 nM
EC50, Jurkat-NFAT activation (G5A): 1.09 nM
EC50, Jurkat-NFAT activation (R6A): 0.196 nM
EC50, Jurkat-NFAT activation (E7A): 0.332 nM
EC50, Jurkat-NFAT activation (H8A): 0.0813 nM
EC50, Jurkat-NFAT activation [6]: 0.0954 nM
